Test results: patent US20220227866A1 (VELOSBIO, published 2022)
Several values for one entry are separate records, joined by “and”; a condition that tells them apart may be missing. Equal values may be shown once.

B1: Bispecific construct 9 (bispecific antibody, human IgG1, kappa)
heavy: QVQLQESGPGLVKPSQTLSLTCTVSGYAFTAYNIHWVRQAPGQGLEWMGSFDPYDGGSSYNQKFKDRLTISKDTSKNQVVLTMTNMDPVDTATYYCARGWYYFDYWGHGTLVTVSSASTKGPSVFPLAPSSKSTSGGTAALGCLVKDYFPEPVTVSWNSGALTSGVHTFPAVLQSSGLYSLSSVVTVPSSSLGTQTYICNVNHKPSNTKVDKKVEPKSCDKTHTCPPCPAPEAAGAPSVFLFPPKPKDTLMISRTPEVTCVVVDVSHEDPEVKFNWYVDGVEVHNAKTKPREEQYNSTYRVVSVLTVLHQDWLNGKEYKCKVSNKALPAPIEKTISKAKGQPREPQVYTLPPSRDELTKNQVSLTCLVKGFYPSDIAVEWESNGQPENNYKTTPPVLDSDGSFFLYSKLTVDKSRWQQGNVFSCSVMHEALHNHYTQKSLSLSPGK
light: DIVMTQTPLSLPVTPGEPASISCRASKSISKYLAWYQQKPGQAPRLLIYSGSTLQSGIPPRFSGSGYGTDFTLTINNIESEDAAYYFCQQHDESPYTFGEGTKVEIKRTVAAPSVFIFPPSDEQLKSGTASVVCLLNNFYPREAKVQWKVDNALQSGNSQESVTEQDSKDSTYSLSSTLTLSKADYEKHKVYACEVTHQGLSSPVTKSFNRGECGGGGSGGGGSEVQLVESGGGLVQPGGSLRLSCAASGFTFNTYAMNWVRQAPGKGLEWVARIRSKYNNYATYYADSVKGRFTISRDDSKNTLYLQMNSLRAEDTAVYYCVRHGNFGNSYVSYFAYWGQGTTVTVSSGGGGSGGGGSGGGGSGGGGSEIVVTQSPATLSVSPGERATLSCRSSTGAVTAANYANWVQEKPGQAFRGLIGGANKRAPGVPARFSGSLSGDEATLTISSLQSEDFAVYYCALFYSNLWVFGQGTKLEIK
notes: anti-CD3 scFv Ab10 (SP34-based); ROR1 arm Ab1; valency 2/2
B2: Bispecific construct 13 (bispecific antibody, human IgG1, kappa)
heavy 1: not shown
heavy 2: QVQLVQSGGGVVQPGRSLRLSCKASGYTFTRYTMHWVRQAPGKGLEWIGYINPSRGYTNYNQKVKDRFTISRDNSKNTLYLQMDSLRAEDTAVYYCARYYDDHYSLDYWGQGTTVTVSSGGGGSGGGGSGGGGSGGGGSDIQMTQSPSSLSASVGDRVTITCSASSSVSYMNWYQQKPGKAPKRWIYDTSKLASGVPSRFSGSGSGTDFTFTISSLQPEDIATYYCQQWSSNPFTFGQGTKLEIKEPKSSDKTHTCPPCPAPEAAGAPSVFLFPPKPKDTLMISRTPEVTCVVVDVSHEDPEVKFNWYVDGVEVHNAKTKPREEQYNSTYRVVSVLTVLHQDWLNGKEYKCKVSNKALPAPIEKTISKAKGQPREPQVYTLPPSRDELTKNQVSLSCAVKGFYPSDIAVEWESNGQPENNYKTTPPVLDSDGSFFLVSKLTVDKSRWQQGNVFSCSVMHEALHNHYTQKSLSLSPGK
light: DIVMTQTPLSLPVTPGEPASISCRASKSISKYLAWYQQKPGQAPRLLIYSGSTLQSGIPPRFSGSGYGTDFTLTINNIESEDAAYYFCQQHDESPYTFGEGTKVEIKRTVAAPSVFIFPPSDEQLKSGTASVVCLLNNFYPREAKVQWKVDNALQSGNSQESVTEQDSKDSTYSLSSTLTLSKADYEKHKVYACEVTHQGLSSPVTKSFNRGEC
notes: ROR1 arm Ab1; CD3 valency 1, ROR1 valency 1
B3: parental anti-ROR1 IgG (Ab1) (antibody, V domains shown)
VH: QVQLQESGPGLVKPSQTLSLTCTVSGYAFTAYNIHWVRQAPGQGLEWMGSFDPYDGGSSYNQKFKDRLTISKDTSKNQVVLTMTNMDPVDTATYYCARGWYYFDYWGHGTLVTVSS
VL: DIVMTQTPLSLPVTPGEPASISCRASKSISKYLAWYQQKPGQAPRLLIYSGSTLQSGIPPRFSGSGYGTDFTLTINNIESEDAAYYFCQQHDESPYTFGEGTKVEIKR
notes: also called Control; parental IgG

Key:
human ROR1 on cells [1] = biological target: T1, human ROR1 on cells (human, UniProt Q01973 30-937); assay: cell-based or functional assay
human ROR1 on cells [2] = biological target: T1, human ROR1 on cells; assay: cell-based or functional assay; remark: listed apart in the source
[3] = biological target: T2, human CD3 on Jurkat cells (human, UniProt P09693 23-182; P04234 22-171; P07766 23-207); assay: flow cytometry on Jurkat cells
T2 construct: GenBank NP_000064.1, NP_000723.1, NP_000724.1
Method in brief: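 Jurkat cells (2.5E5 per condition) incubated with bispecific molecule in PBS/2% FBS on ice for 20 min, then detected with PE-labelled anti-human Fc (1:500, 20 min on ice). Cells fixed in 2% paraformaldehyde and bound antibody measured by flow cytometry.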

[4] = biological target: T3, recombinant human ROR1 extracellular domain (human, UniProt Q01973 30-406); assay: ELISA, immobilised ROR1 ECD, construct titrated
T3 construct: Bought (Acro Biosystems cat. R01-H522Y); whole entry named; also called ROR1-ECD; immobilized ROR1

[5] = biological target: T4, soluble biotinylated human ROR1 extracellular domain (human, UniProt Q01973 30-406, biotinylated with EZ-Link Sulfo-NHS-LC-Biotin at a 1:5 molar ratio); assay: ELISA, captured construct, biotinylated ROR1 titrated; first of the two values given
T4 construct: Acro Biosystems cat; whole entry named; also called b-ROR1; soluble b-ROR1
Description: (§1) To measure the binding of bispecific constructs to soluble ROR1, a 96-well Costar-3366 plate was coated with 50 μL/well of 2 μg/mL goat anti-human kappa (Southern Biotech cat. #2060-01) in PBS overnight at 4° C. The plate was rinsed once with PBS-T, blocked with 100 μL/well 5% M-P for 1 h at 25° C., rinsed once with PBS-T, and 2 μg/mL of the bispecific binding molecule was added and incubated for 1 h at 25° C. The plate was washed three times with PBS-T. Biotinylated ROR1 was diluted serially, 3-fold in 5% M-P and was incubated for 1 h at 25° C. (50 μL/well). The plate was washed three times with PBS-T. To detect the binding of b-ROR1, 50 μL/well Neutravidin-HRP (Pierce cat. #31030) diluted 1:5000 in 1% BSA-PBS was added for 1 h at 25° C. […] The reaction was terminated by the addition of 2 N H₂SO₄ and the A450 was determined using a Spectramax plate reader.
(§2) The stronger binding observed with bivalent constructs versus monovalent constructs in cell assays and ELISAs in which the antigen is immobilized is consistent with an avidity effect. To determine if this was the case, binding to soluble monomeric ROR1 was assessed by immobilizing the bispecific binding molecules on a microtiter plate coated with goat anti-human kappa antibody and titrating biotinylated RORL. […]

[6] = biological target: T4, soluble biotinylated human ROR1 …; assay: ELISA, captured construct, biotinylated ROR1 titrated; second of the two values given
Description: as §1, §2

human ROR1 on cells [7] = biological target: T1, human ROR1 on cells; assay: flow cytometry, ROR1-transfected MEC cells, 30 µg/mL
Description: Internalization of bispecific binding molecules was measured using a pulse-chase methodology that quantitates non-internalized, cell surface antibody at 0, 30, 60, 120, 180, and 240 minutes using flow cytometry. ROR1-transfected MEC cells were washed with cold PBS and resuspended at 1×10⁷ per mL in cold incubation buffer (RPMI with 2% FBS—Fisher/Gibco cat. #16140071). Then, 3.5×10⁶ cells were aliquoted to microcentrifuge tubes for each bispecific construct tested. An equal volume (350 μL) of bispecific binding molecule was combined with the cells to make a final concentration of 30 μg/mL. […] Cells and antibody were incubated on ice for 20 minutes, washed five times with 1 mL of cold FACS buffer (PBS with 2% FBS), and resuspended in 1.4 mL of incubation buffer. Subsequently, the samples were incubated at 37° C. for 0, 30, 60, 120, 180, and 240 minutes after which time 200 μL of each sample was transferred to ice to halt internalization.
Samples for each construct and timepoint were split in half (100 μL each) and spun down. Half of the samples were resuspended in 100 μL secondary antibody (goat anti-human IgG-PE, Fc-gamma specific—eBiosciences cat. #12-4998) to detect bound bispecific constructs. The other half was stained with 100 μL cocktail of UC961-PE and 4A5-AlexaFluor647. […] Subsequently, fixed cells were washed once with FACS buffer and analyzed.

[8] = biological target: T4, soluble biotinylated human ROR1 …; assay: ELISA, captured construct, biotinylated ROR1 titrated
[9] = biological target: T3, recombinant human ROR1 extracellular …; assay: ELISA, immobilised ROR1 ECD, antibody titrated
Description: A 96-well Costar-3366 plate was coated with 50 μL/well of 2 μg/mL […] (Acro Biosystems cat. #R01-H522Y) in PBS overnight at 4° C. The plate was rinsed once with PBS containing 0.05% Tween 20 (PBS-T) and blocked with 100 μL/well of 5% non-fat milk in PBS (5% M-P) for 1 h at 25° C. Antibody samples were serially diluted 2-fold using 5% M-P and were incubated for 1 h at 25° C. (50 μL/well). The plate was washed three times with PBS-T and 50 μL/well anti-human kappa, HRP conjugate (Southern Biotech cat. #2060-05) diluted 10,000-fold in 5% M-P was added for 1 h at 25° C. The plate was washed three times with PBS-T, developed with 50 μL/well 1-Step Ultra TMB-ELISA (Thermo Scientific cat. #34028). The reaction was terminated by the addition of 2 N H₂SO₄ and the A450 was determined using a Spectramax plate reader.
Next, the binding of bispecific binding molecules to ROR was characterized by ELISA using recombinantly-expressed extracellular domain of RORL. ROR was immobilized on a microtiter plate, the bispecific binding molecules were titrated, and binding was quantitated with an anti-human kappa-HRP reagent. Consistent with the cell binding data, all constructs bound ROR1 in a concentration-dependent manner (FIG. 6). Moreover, monovalent ROR1 constructs 13-15 bound less tightly than all but two of the bivalent constructs.

[10] = biological target: T4, soluble biotinylated human ROR1 …; assay: ELISA, captured antibody, biotinylated ROR1 titrated
Description: as §1, §2

T1 sequence (Q01973 30-937 limits assumed): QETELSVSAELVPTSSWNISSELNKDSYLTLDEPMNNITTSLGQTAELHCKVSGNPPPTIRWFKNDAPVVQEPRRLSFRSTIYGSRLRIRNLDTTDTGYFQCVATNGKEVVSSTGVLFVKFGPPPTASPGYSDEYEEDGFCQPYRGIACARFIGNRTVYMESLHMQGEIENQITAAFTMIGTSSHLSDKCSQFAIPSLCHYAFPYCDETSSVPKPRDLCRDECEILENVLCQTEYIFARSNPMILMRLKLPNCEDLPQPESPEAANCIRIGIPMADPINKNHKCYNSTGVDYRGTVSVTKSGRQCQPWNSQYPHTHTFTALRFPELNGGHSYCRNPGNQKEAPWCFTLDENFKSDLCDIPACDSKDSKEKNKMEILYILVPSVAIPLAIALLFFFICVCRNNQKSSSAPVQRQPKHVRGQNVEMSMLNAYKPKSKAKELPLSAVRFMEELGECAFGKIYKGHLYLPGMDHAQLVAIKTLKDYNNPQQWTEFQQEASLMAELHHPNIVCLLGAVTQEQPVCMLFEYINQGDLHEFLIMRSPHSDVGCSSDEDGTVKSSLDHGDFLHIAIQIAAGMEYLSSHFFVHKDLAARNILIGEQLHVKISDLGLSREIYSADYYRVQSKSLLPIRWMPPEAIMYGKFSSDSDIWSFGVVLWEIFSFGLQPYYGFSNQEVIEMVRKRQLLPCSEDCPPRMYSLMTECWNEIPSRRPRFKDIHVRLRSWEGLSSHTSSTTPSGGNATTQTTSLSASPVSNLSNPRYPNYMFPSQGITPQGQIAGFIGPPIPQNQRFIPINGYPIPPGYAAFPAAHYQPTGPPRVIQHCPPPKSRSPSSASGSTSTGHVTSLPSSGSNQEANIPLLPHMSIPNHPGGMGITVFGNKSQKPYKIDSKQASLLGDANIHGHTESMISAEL
T3 sequence (Q01973 30-406 limits assumed): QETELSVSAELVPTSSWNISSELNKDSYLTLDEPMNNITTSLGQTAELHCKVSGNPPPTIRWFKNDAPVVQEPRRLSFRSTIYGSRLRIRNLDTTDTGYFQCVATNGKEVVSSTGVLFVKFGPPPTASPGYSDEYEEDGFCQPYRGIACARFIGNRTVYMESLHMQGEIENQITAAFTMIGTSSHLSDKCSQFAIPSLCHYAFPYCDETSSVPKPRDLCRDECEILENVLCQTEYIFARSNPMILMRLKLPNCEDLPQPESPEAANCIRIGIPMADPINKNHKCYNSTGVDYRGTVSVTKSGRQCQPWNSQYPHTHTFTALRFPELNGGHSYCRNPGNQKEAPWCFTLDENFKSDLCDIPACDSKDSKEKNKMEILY
T4 sequence (Q01973 30-406 limits assumed): as above
T2 sequence (P09693 23-182 limits assumed, chain 1 of 3): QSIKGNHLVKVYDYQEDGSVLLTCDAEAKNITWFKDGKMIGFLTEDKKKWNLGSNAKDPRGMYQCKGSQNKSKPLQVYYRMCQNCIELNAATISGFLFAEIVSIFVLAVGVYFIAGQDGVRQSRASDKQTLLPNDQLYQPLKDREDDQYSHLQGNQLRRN
T2 sequence (P04234 22-171 limits assumed, chain 2 of 3): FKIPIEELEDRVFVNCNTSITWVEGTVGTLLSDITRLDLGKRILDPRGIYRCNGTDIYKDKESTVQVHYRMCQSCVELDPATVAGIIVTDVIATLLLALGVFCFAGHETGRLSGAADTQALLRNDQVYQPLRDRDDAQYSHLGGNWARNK
T2 sequence (P07766 23-207 limits assumed, chain 3 of 3): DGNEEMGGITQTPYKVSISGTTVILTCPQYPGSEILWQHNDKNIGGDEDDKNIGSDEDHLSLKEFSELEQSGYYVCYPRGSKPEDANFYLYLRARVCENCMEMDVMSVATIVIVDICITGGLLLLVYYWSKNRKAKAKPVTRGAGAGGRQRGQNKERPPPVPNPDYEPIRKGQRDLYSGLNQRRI

Binder	EC50, LDH release, ROR1-transfected MEC, one PBMC donor (human ROR1 on cells [1]) [ng/mL]	EC50, LDH release, A549 (human ROR1 on cells [2])	EC50, LDH release, A4573 (human ROR1 on cells [2])	EC50, LDH release, JeKo-1 (human ROR1 on cells [2])	EC50, LDH release, MDA-MB-468 (human ROR1 on cells [2])	EC50, LDH release, Mino (human ROR1 on cells [2])	EC50, LDH release, NCI-H1975 (human ROR1 on cells [2])	EC50, LDH release, Saos-2 (human ROR1 on cells [2])	Max. LDH Release, Mino (human ROR1 on cells [2]) [%]	binding result [3]	Kd [4] [nM]	Kd [5] [nM]	Kd [6] [nM]	EC50, LDH release, ROR1-transfected MEC (human ROR1 on cells [2])	Max. LDH Release, ROR1-transfected MEC (human ROR1 on cells [2]) [%]	binding extent relative to the saturated MFI of constructs 1 and 7 at time 0 (human ROR1 on cells [7]) [%]	Kd [8] [nM]	Kd [9] [nM]	Kd [10]
B1	< 0.1	9.95 ng/mL and 49.8 pM	9.71 ng/mL and 48.6 pM	1.71 ng/mL and 8.5 pM	5.55 ng/mL and 27.8 pM	0.75 ng/mL and 3.8 pM	2.3 ng/mL and 11.5 pM	14.6 ng/mL and 73.2 pM	75	binds	0.158	0.268	0.229	–	–	–	–	–	–
B2	–	–	–	–	–	–	–	–	–	binds	0.194	–	–	12 ng/mL and 96 pM	46	~80	0.226	–	–
B3	–	–	–	–	–	–	–	–	–	–	–	–	–	–	–	–	–	0.037	0.158 nM and 0.145 nM
